From US7220569 come the findings set out here.

The target of this data set is T1, Factor X analogue with the furin cleavage site Arg-Arg-Lys-Arg/Ile (rFX^RRKR/I).
T1 chain 1: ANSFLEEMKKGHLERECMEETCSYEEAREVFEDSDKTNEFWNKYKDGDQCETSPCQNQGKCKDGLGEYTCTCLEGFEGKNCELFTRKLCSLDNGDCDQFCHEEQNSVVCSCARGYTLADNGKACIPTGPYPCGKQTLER
T1 chain 2: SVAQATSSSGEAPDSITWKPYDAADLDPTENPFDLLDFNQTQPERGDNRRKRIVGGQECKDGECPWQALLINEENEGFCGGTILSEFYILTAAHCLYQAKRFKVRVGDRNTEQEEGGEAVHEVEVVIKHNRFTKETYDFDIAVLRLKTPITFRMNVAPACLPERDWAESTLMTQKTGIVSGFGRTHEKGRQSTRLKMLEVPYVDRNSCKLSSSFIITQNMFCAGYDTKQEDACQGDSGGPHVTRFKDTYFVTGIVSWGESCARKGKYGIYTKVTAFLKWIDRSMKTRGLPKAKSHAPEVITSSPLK

B1: rfurin deltaCys-spacer-10xHis (purified r-furin derivative) (protein)
chain: DVYQEPTDPKFPQQWYLSGVTQRDLNVKAAWAQGYTGHGIVVSILDDGIEKNHPDLAGNYDPGASFDVNDQDPDPQPRYTQMNDNRHGTRCAGEVAAVANNGVCGVGVAYNARIGGVRMLDGEVTDAVEARSLGLNPNHIHIYSASWGPEDDGKTVDGPARLAEEAFFRGVSQGRGGLGSIFVWASGNGGREHDSCNCDGYTNSIYTLSISSATQFGNVPWYSEACSSTLATTYSSGNQNEKQIVTTDLRQKCTESHTGTSASAPLAAGIIALTLEANKNLTWRDMQHLVVQTSKPAHLNANDWATNGVGRKVSHSYGYGLLDAGAMVALAQNWTTVAPQRKCIIDILTEPKDIGKRLEVRKTVTACLGEPNHITRLEHAQARLTLSYNRRGDLAIHLVSPMGTRSTLLAARPHDYSADGFNDWAFMTTHSWDEDPSGEWVLEIENTSEANNYGTLTKFTLVLYGTAPEG
As to B1, the FXa activity (mU/ml), chromogenic substrate S2337, incubation 0 hours was less than 25 mU/ml; the FXa activity (mU/ml), chromogenic substrate S2337, incubation 6 hours amounted to 56 mU/ml; the FXa activity (mU/ml), chromogenic substrate S2337, incubation 24 hours stood at 101 mU/ml; the FXa activity (mU/ml), chromogenic substrate S2337, incubation 48 hours came out at 124 mU/ml. In addition, the FXa activity (mU/ml), chromogenic substrate S2337, incubation 72 hours is 133 mU/ml; the “conversion of the heavy chain to the activated form after 72 hours at 37 C (Western blot)” value is recorded as “about 50% of the starting material (HC) have been converted to the activated form”; the specific activity (mU/µg), incubation 0 hours came to 0 mU/µg; the specific activity (mU/µg), incubation 6 hours was determined as 80 mU/µg. In addition, the specific activity (mU/µg), incubation 24 hours came out at 144 mU/µg; the specific activity (mU/µg), incubation 48 hours is 177 mU/µg; the specific activity (mU/µg), incubation 72 hours is 190 mU/µg.
